Target: HOXC11 (His-HOXC11) (Bubalus bubalis (water buffalo), UniProt W5XU26 1-304)
Test: EMSA; supershift with anti-HOXC11 antibody; 10 mM Tris pH 7.9, 1 mM DTT, 0.1 mM EDTA, 50 mM KCl, 5% glycerol, 30 min at 4 °C; 5% native PAGE in 1x TBE at room temperature
Conditions: protein: recombinant; tags: N-terminal His6 with thrombin site; label: 32P (alpha-32P-dCTP); 5' overhang 4 nt (GATC) at both ends

HOXC11 (His-HOXC11), sequence (W5XU26 entry or part of it): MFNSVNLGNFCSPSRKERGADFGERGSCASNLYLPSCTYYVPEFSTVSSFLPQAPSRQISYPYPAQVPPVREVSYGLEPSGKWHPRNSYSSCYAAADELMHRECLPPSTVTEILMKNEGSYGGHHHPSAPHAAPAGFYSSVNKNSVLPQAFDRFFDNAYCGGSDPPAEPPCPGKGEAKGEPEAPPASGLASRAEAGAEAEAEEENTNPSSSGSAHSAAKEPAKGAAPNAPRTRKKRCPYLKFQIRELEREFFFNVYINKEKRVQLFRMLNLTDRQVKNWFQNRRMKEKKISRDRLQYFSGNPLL

B1: CE-LPH1 probe (LPH promoter) (dsDNA)
DNA 1: GATCTTTTACAACCTCAGTTG
DNA 2: GATCCAACTGAGGTTGTAAAA
B1: binds.

From PMC4139611, “Differential expression of Homeobox C11 protein in water buffalo Bubalus bubalis and its putative 3D structure”
